Reference: the supplement of paper PMC11502859

Tested on: HEK293T
Experiment: median enrichment of reporter reads in eGFP-reduced (low/intermediate) vs eGFP-high sorted cells (eGFP-extension fusion abundance) (ratio); higher = stronger loss of eGFP-fusion protein abundance (more destabilising extension)
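Note: lentiviral eGFP-IRES-mCherry reporter pool sorted by FACS 96 h post-transduction, gated on mCherry-high cells, Illumina read counts normalized per million, median across four biological replicates.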

Row | Substance | median enrichment
1 | CLERW [LCOR] | 1.17
2 | SKNQRGSEKPRET [CDKN2A] | 0.493
3 | RGASLLSSHSGSSFHPPPSPPPTRGTWWREAGRLFCGIARSSLWCRLVAITCNKAPGKGK [TLE6] | 21.9
4 | LKNCLEELY [EBF1] | 2.5
5 | LAYLLVFVLKCDLRFNV [TMEM70] | 9.39
6 | NNNNNNNNNN [Asn10] | 0.3
7 | QRLQCLLRRKIKFTSSKVTLEDRALGMSFFF [OR2C3] | 5.9
8 | KSFPLTLLQIGL [PTHLH] | 19.8
9 | WRSCAAQSQTPAPTTYFCYTQEHFRKLSQLIFCFSSMSILSVSHFEDFFSLLYLCFSFFGFYFVVLSVIFNVPKICTCSIKNV [HOOK3] | 2.08
10 | SGNRDAFPCSSLQPPLPYKIWSNS [ADH1B] | 2.16
11 | FLGTHSHAHCRSINSNPHFRPKIMRPHLVSTFPRPCSKPNPFLPSGSQNLLSPTATTVLPDFSHSNHSRPAMGNRPSPSVLVK [RNF39] | 4.59
12 | YKWQQNLTPRPANSASLVTLFWLLDGFHSSLGFVCEYCLLCFVFNCNG [OR7E24] | 6.78
13 | LIIMLKSALTFLR [MCF2L2] | 15.2
14 | RVAYFMQS [PDE5A] | 7.9
15 | YSQPQLMPSQSQPPVTPSQSQPRVTPSQSQPHVTPYRSKSGKQKQSVPIPKTVSRKGTLKK [ADAM29] | 0.413
16 | RRKCLLPW [PKD1L2] | 1.93
17 | HTTGQGCGAGAIPAPFPGPRGLGSLPSHPGLVPPGAPTVEIRRGWNGGRGGAGGPHPSAALGLGPHPSGGPEAGGGNPRGWLF [GNB2] | 0.37
18 | CTLGAVSSKSL [ZFC3H1] | 0.779
19 | LCDCSKLWCKIPPVSSHLPDFYLGLARTSSPSYQPSLPPSSHWTPALALPLG [LY6G5C] | 3.74
20 | LECRSAGRREE [CNPY1] | 12.4
21 | WFST [SEMA3D] | 2.02
22 | WLLITLSHFLVMH [KRTAP22-2] | 13.9
23 | GVSGGEERRADLGRALRTWPRARDSPGSSSPWQAQQHVPQIWKGLPLCQCLGGCHGCPHPLLSVCGVEEPTPASCQDHLGGHT [GPRC5C] | 1.27
24 | EEESLPPPKYWAALSLPRDHPSLPAMCTIMTNLFGYAVVLPFWGLGSTRRLCLQCRNLFSLCVAGARAQGPCLCIFNKYSFSK [GPR108] | 0.994
25 | YGEKIRNGCCT [WDR64] | 0.76

Row | Substance | median enrichment
26 | CETHNFISHSDHRLLNIADRNRSLQGV [TAS2R13] | 2.12
27 | RKGGSYSQAAM [HLA-G] | 0.441
28 | LGLRVHTGWQEASKGS [SERPINH1] | 4.89
29 | YRTGIHEQKAESQTCLS [CD5] | 0.587
30 | LGQAAPVLGEGG [DEPDC5] | 1.71
31 | WRPGRRGPSSGG [Degron KLHDC2] | 10.7
32 | RVTKKTMHHKIAQSSAEQFSGDPWTQ [CXCL6] | 0.284
33 | YIFYSHSVVQSSALGIYLCSQRSNSHLLYCLCLKEFESFLIFIIHLRTRDPCLAVWSKADYAAWRQDSDRASERAKSCQKETE [GABRA1] | 10.4
34 | RESSCILENTIPDFPQTALHQYNCISSFYIVQ [SCRG1] | 13.8
35 | LEQ [UNC93A] | 0.561
36 | LTSQST [ANGPT2] | 0.829
37 | RGGRWEPSFQ [OR6Q1] | 0.248
38 | LVLCS [PIGX] | 9.44
39 | YSWANDH [SEMA4F] | 0.76
40 | YIMRHTV [TBC1D32] | 5.87
41 | WAAPPGRWGAPLNDSVILKRWLGSWEKPSGCPLGNLHIISVLLVMSRWRGHRCAVSCSRNY [C19orf12] | 22
42 | EVGQPLMSWFLQLSFPLGCIEGFS [RAG1] | 6.39
43 | QSKQGRNVQVNNKSPHTLLTPWRQLLFRSFICLLQESFLPLT [SIRPD] | 4.67
44 | SGPGIHVGGRGRGGRREGRGEIHTVDTLTSWPKSLPQDLPDLHGQASYGGVSISFFLFLFPGLRASWGPRFTNSPTPLKLWRR [AQP1] | 5.75
45 | LGSVQGLSH [CST5] | 0.51
46 | CQFKEKKM [PHTF2] | 0.408
47 | YRGPCRHHPPPSPCPQPVCPVPCPPQAWWWQWRRLRRLKRLTGRGAFCLAHCPDDPPAPSRLQQQSPRRTGWTEEKEVDCCTH [SOX10] | 3.52
48 | SAIHL [XKR9] | 0.425
49 | LNKLKMDLFFFNGNRTLCQITSYRNNSLFLTNLVLPYTSTGF [PTEN] | 9.05
50 | LTEPCWPAPTSLCSFLWFLLSFPTLRREIYFTALNSL [UBTD2] | 9.94

Row | Substance | median enrichment
51 | RRRRRRR [Arg07] | 0.889
52 | CLSGRANPENEDWKKEKKKNTSKVSSEIVLHLLYSLEDFHYVLTTLKCVNS [FOXP1] | 9.44
53 | RTCGRPF [CMTM1] | 6.49
54 | GQRQRVLPKPLLPLWMLSLTLTHHCASLQTPRAQDWARPRDSHPFPSWEELACLATDSVSSNWLKWALPRVQLCGFYHA [IQGAP3] | 15.7
55 | CGA [FOSL1] | 0.817
56 | SEEPQDHTHSPYPPQDYRTFWHTLYRVLGFTPQNDPTMSTHHQNPANGPPLPPSPDAEMVMGSWRVGSEMKGTPQWAAGPIFP [SLC13A5] | 3.6
57 | PPPPPPPPP [Pro09] | 3.45
58 | RQADEGATLTQSPQKAKCDSQVSSLTQR [PCARE] | 0.302
59 | RRSPVCPVKTEIN [TM9SF2] | 0.793
60 | YRHLVVFWEQKNYFLLTRLFVLKTIFLNLS [EP300] | 14
61 | LVAPPHWTHGLAHASPLLPLPAIDNVAGTSASPLQPSNFPGTLLSAPEEGAVVSCCLWAPASSAVLGSVLLASVNNKATVCSG [MCM5] | 4.44
62 | QHLQEEEEKEGTPDWI [GPR158] | 1.29
63 | YLLKYRNLNNVKLD [TJP1] | 4.45
64 | GKSPVSQHRGAALHTCGETFPAGPRESDSKNNRCCFSRVM [HABP4] | 8.99
65 | CGLLPLGPLTLSGWWTTKYNPVYNLKIYFTFVLLYLFIKG [SMAD4] | 2.65
66 | RALLAPAFHALPIPPPPPPPPATEGRPEPPSLPSPLGGRGGHWKGGTPPPQQLRRGFWN [TOMM40] | 0.777
67 | CLGPGRATGSSQAAARMLISKRCWSLPS [ZBTB39] | 30.1
68 | QTGHPTHLHAKILPASSLRVPW [UBL4B] | 4.81
69 | SGSCCVPTETTIWGLLGNAVNAEGSDVWVL [PATZ1] | 10.9
70 | LNILKCKASTV [TRAPPC6B] | 1.63
71 | LFCCCIYTSKGPDLLLLKLFFKTWNYKEIRSSITFDTNFYRN [TTC13] | 5.88
72 | AAA [Ala03] | 0.262
73 | EHH [SPRR2G] | 0.297
74 | LKH [HOXA2] | 0.608
75 | GTLTV [ABCB1] | 0.767

Row | Substance | median enrichment
76 | LECSPFPCPGWQGRGRVKGMCCNTEDRKKKPLDTARDGG [ORMDL3] | 48.4
77 | YVYLFLQEI [PI15] | 4.25
78 | YEPYSFKPYVFLCAFFPYPSSLALPFLNTAAL [UBQLN3] | 7.8
79 | WAPGTAPHCQLPLLGGPGRRVPPSPCQGPGDPLPGCLRLLLRRGNAKKEKEKPRARPLPPAVHCAASSVPGLTVPLSSAPARQ [NRXN2] | 6.68
80 | SNWGAFSPEQRGPRHAVERLHLPPFPGQQD [COX14] | 0.854
81 | IIIIIIIIII [Ile10] | 6.67
82 | LSGAQE [HELLS] | 0.562
83 | WGCSGNSHSAPIRAPCRGPSVVSD [TBC1D14] | 2.19
84 | LRLIIYQEC [PKIB] | 6.92
85 | QCHLLSPTTP [PPY] | 0.404
86 | GTHNLHLSGYYYRFLHAQSRRIWTQMVTITSWPTNKKVLTML [ZNF717] | 7.8
87 | EGPPCICT [PDK2] | 1.79
88 | QFLQDTVPLPFFDQLSLVASSLHKM [FCF1] | 14.2
89 | CGVSPGLMVCLL [APOBEC3F] | 12.2
90 | KVCRSQ [KRTAP11-1] | 3.09
91 | YPLRDSRCYLSSVPHFL [SYT9] | 12
92 | EEEEEE [Glu06] | 1.59
93 | GNWD [PIK3C3] | 0.441
94 | SPF [SDHD] | 0.337
95 | GCGLNCRLTK [MYO16] | 0.777
96 | QPWGWTVDPTSLREGGMAGCEDNSS [POLR3H] | 0.421
97 | QLPMPPQNWLLRVN [TSC22D1] | 4.17
98 | WNHRSGRSRALSSCTVFIVPGTLFKDI [LIN7B] | 4.84
99 | EEE [Glu03] | 9.28
100 | SCNPTRAHFIIAETSVCIPVITHCNRATN [IDO1] | 4.95

Row | Substance | median enrichment
101 | SPLL [PIK3C2G] | 0.449
102 | SMLLPGLQKLHGHSSVIGLSLITKITAQDHLPEKHPLA [PLCB1] | 19.1
103 | LLHERMQRMQFPGCAVDFFQQV [CEP112] | 20.7
104 | GGCRRRPSWCRQAGHRDPGPAQETAFFSRYNRRQKKRVPPLPNRSFWQGVPNAKTQRCGWHLLPHSFKIVKKC [FOXF1] | 9.48
105 | LQCTIFSHLYYFFSACIT [HAO1] | 1.93
106 | SHHQELTHT [NUP88] | 0.49
107 | WLQNY [IFNAR2] | 10.5
108 | YVD [GLUL] | 0.387
109 | SLCC [POLQ] | 0.62
110 | KAGTDLGPKIPFQRN [RBMXL2] | 0.175
111 | WRPRIQH [FAR1] | 1.02
112 | LWRQALQGGPDPRVVLTVLTVYLSSPRENASFEHTVPTICIEQKDFCFTEDKRCFYFRPRREEFALNL [CNOT8] | 15.4
113 | HHHHHHHHHH [His10] | 0.464
114 | WHRRTPGDFLYICRLRLFVTSKWDIV [TAF4] | 5.8
115 | KKTSSR [LGALS2] | 0.594
116 | PEPGWGISAGQRRRLSQLFPDIQGHCSLLPSRTSLLPPTMAGGEQVSQKHPVPRMVLCACPSLLGLPFPLLREDVSLLTCTLA [KIRREL1] | 4.27
117 | LLK [HGF] | 1.66
118 | LAAGVAMMGWSSLGQGVLGPTPTPPPRHHFPSRFLRLDLGSPLPVMHSCPGPTSPSLTSLELWPPRKGPIQPRLFTEVVLFMK [SCN1B] | 4.89
119 | KKNVEAIGLLGG [Degron KLHDC2] | 5.08
120 | QTHGTDSLGN [DPF3] | 0.444
121 | SEVRPGPGQGLGPAPCPICSGPQAPPFEEVG [GUCY2D] | 1.47
122 | WCPGVCCLAHMSLL [CLSTN2] | 5.25
123 | FFF [Phe03] | 5.17
